# From IntAct's records for PubMed 20863830
# B1: Phospholipid-transporting ATPase ABCA3 (Homo sapiens), Q99758 (parent)
# chain: MAVLRQLALLLWKNYTLQKRKVLVTVLELFLPLLFSGILIWLRLKIQSENVPNATIYPGQSIQELPLFFTFPPPGDTWELAYIPSHSDAAKTVTETVRRALVINMRVRGFPSEKDFEDYIRYDNCSSSVLAAVVFEHPFNHSKEPLPLAVKYHLRFSYTRRNYMWTQTGSFFLKETEGWHTTSLFPLFPNPGPREPTSPDGGEPGYIREGFLAVQHAVDRAIMEYHADAATRQLFQRLTVTIKRFPYPPFIADPFLVAIQYQLPLLLLLSFTYTALTIARAVVQEKERRLKEYMRMMGLSSWLHWSAWFLLFFLFLLIAASFMTLLFCVKVKPNVAVLSRSDPSLVLAFLLCFAISTISFSFMVSTFFSKANMAAAFGGFLYFFTYIPYFFVAPRYNWMTLSQKLCSCLLSNVAMAMGAQLIGKFEAKGMGIQWRDLLSPVNVDDDFCFGQVLGMLLLDSVLYGLVTWYMEAVFPGQFGVPQPWYFFIMPSYWCGKPRAVAGKEEEDSDPEKALRNEYFEAEPEDLVAGIKIKHLSKVFRVGNKDRAAVRDLNLNLYEGQITVLLGHNGAGKTTTLSMLTGLFPPTSGRAYISGYEISQDMVQIRKSLGLCPQHDILFDNLTVAEHLYFYAQLKGLSRQKCPEEVKQMLHIIGLEDKWNSRSRFLSGGMRRKLSIGIALIAGSKVLILDEPTSGMDAISRRAIWDLLQRQKSDRTIVLTTHFMDEADLLGDRIAIMAKGELQCCGSSLFLKQKYGAGYHMTLVKEPHCNPEDISQLVHHHVPNATLESSAGAELSFILPRESTHRFEGLFAKLEKKQKELGIASFGASITTMEEVFLRVGKLVDSSMDIQAIQLPALQYQHERRASDWAVDSNLCGAMDPSDGIGALIEEERTAVKLNTGLALHCQQFWAMFLKKAAYSWREWKMVAAQVLVPLTCVTLALLAINYSSELFDDPMLRLTLGEYGRTVVPFSVPGTSQLGQQLSEHLKDALQAEGQEPREVLGDLEEFLIFRASVEGGGFNERCLVAASFRDVGERTVVNALFNNQAYHSPATALAVVDNLLFKLLCGPHASIVVSNFPQPRSALQAAKDQFNEGRKGFDIALNLLFAMAFLASTFSILAVSERAVQAKHVQFVSGVHVASFWLSALLWDLISFLIPSLLLLVVFKAFDVRAFTRDGHMADTLLLLLLYGWAIIPLMYLMNFFFLGAATAYTRLTIFNILSGIATFLMVTIMRIPAVKLEELSKTLDHVFLVLPNHCLGMAVSSFYENYETRRYCTSSEVAAHYCKKYNIQYQENFYAWSAPGVGRFVASMAASGCAYLILLFLIETNLLQRLRGILCALRRRRTLTELYTRMPVLPEDQDVADERTRILAPSPDSLLHTPLIIKELSKVYEQRVPLLAVDRLSLAVQKGECFGLLGFNGAGKTTTFKMLTGEESLTSGDAFVGGHRISSDVGKVRQRIGYCPQFDALLDHMTGREMLVMYARLRGIPERHIGACVENTLRGLLLEPHANKLVRTYSGGNKRKLSTGIALIGEPAVIFLDEPSTGMDPVARRLLWDTVARARESGKAIIITSHSMEECEALCTRLAIMVQGQFKCLGSPQHLKSKFGSGYSLRAKVQSEGQQEALEEFKAFVDLTFPGSVLEDEHQGMVHYHLPGRDLSWAKVFGILEKAKEKYGVDDYSVSQISLEQVFLSFAHLQPPTAEEGR
# partner: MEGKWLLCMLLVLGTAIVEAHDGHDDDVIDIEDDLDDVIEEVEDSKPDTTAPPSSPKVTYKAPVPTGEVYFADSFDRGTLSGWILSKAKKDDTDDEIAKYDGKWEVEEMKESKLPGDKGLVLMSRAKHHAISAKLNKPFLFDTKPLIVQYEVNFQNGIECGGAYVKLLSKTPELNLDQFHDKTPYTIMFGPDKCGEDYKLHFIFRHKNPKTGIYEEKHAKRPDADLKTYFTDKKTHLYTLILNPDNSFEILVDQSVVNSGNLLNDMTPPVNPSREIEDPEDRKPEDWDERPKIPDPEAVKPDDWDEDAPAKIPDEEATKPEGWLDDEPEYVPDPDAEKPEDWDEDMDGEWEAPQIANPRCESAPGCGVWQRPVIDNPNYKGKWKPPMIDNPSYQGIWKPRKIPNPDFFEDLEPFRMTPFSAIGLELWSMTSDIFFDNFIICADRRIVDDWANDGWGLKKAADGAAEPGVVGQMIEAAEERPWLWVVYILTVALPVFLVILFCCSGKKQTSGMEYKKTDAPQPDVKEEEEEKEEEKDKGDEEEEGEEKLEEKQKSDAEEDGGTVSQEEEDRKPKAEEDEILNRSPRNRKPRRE
# B2: Phospholipid-transporting ATPase ABCA3 (Homo sapiens), Q99758 (parent)
# chain: B1 chain
# partner: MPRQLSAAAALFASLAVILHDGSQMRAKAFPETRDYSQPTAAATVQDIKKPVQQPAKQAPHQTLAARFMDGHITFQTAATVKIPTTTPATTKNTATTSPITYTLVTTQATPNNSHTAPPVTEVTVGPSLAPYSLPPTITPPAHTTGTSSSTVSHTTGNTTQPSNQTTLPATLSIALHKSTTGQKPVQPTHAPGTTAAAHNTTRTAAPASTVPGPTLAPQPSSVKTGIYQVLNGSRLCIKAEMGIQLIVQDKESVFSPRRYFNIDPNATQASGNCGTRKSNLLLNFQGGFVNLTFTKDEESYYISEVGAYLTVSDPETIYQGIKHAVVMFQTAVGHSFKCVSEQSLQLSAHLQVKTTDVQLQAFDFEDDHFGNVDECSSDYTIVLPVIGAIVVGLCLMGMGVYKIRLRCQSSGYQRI
# Variants of: B1
# Settings: with calx_human CANX
row,effect of a mutation on the interaction,Variant
1,increasing interaction,Q215K

# Variants of: B2
# Settings: with lamp3_human LAMP3, Q9UQV4
row,effect of a mutation on the interaction,Variant
1,disrupting interaction,Q215K
